Test results published in US20040248206A1 (FIBROGEN, published 2004).
Each block holds one binder with its values, some of them ahead of it.

Legend:
[1] = molecular target: T1, rat CTGF (rat, UniProt Q9R1E9 25-347); experiment: Scatchard competitive binding; mAb 10 ng/ml; labeled human CTGF vs unlabeled rat CTGF
T1 chain: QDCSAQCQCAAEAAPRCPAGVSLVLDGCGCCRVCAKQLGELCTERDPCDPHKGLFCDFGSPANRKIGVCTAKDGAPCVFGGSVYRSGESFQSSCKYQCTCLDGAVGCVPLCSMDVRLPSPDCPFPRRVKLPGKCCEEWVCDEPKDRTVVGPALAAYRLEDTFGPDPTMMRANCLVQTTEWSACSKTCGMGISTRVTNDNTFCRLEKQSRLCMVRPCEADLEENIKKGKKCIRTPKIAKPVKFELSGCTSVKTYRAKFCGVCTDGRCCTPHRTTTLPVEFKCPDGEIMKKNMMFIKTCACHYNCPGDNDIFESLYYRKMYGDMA

[2] = molecular target: T2, PC5444; experiment: ELISA with synthetic peptide
T2 construct: Synthetic peptide of the exon 3 region with Ser where native CTGF has Cys
T2 peptide: PLSSMDVRLPSPDS

[3] = molecular target: T3, 10MER; experiment: ELISA with synthetic peptide
T3 peptide: SPDSPFPRRV

[4] = molecular target: T4, 5MER; experiment: ELISA with synthetic peptide
T4 construct: The N-terminal C is probably the added, non-native cysteine (underlining lost in the text)
T4 peptide: CRVKL

[5] = molecular target: T5, P40342 (human); experiment: ELISA with synthetic peptide
T5 peptide: LPSPDCPFPRRVKL

[6] = molecular target: T6, 10MER2; experiment: ELISA with synthetic peptide
T6 peptide: SPDCPFPRRV

[7] = molecular target: T7, 8MER2; experiment: ELISA with synthetic peptide
T7 peptide: CFPRRVKL

[8] = molecular target: T8, 7MER; experiment: ELISA with synthetic peptide
T8 construct: The N-terminal C is probably the added, non-native cysteine (underlining lost in the text)
T8 peptide: CPRRVKL

[9] = molecular target: T9, 9MER2; experiment: ELISA with synthetic peptide
T9 peptide: CPFPRRVKL

[10] = molecular target: T10, P40341; experiment: ELISA with synthetic peptide
T10 construct: Same as P40340 with Ser in place of the Cys
T10 peptide: RLPSPDSPFPRRV

[11] = molecular target: T11, 9MER; experiment: ELISA with synthetic peptide
T11 peptide: PDSPFPRRV

[12] = molecular target: T12, PC5445 (human); experiment: ELISA with synthetic peptide
T12 peptide: RLPSPDSPFPRRVKLPGK

[13] = molecular target: T13, P40340 (human); experiment: ELISA with synthetic peptide
T13 peptide: RLPSPDCPFPRRV

[14] = molecular target: T14, 6MER; experiment: ELISA with synthetic peptide
T14 construct: The N-terminal C is probably the added, non-native cysteine (underlining lost in the text)
T14 peptide: CRRVKL

[15] = molecular target: T15, PEP5 (human); experiment: ELISA with synthetic peptide
T15 peptide: RLPSPDCPFPRRVKL

[16] = molecular target: T16, 8MER; experiment: ELISA with synthetic peptide
T16 peptide: DSPFPRRV

[17] = molecular target: T17, recombinant human connective tissue growth factor (human, UniProt P29279 27-349); experiment: RIA, immobilized antibody, [125I]rhCTGF with unlabeled rhCTGF, Scatchard
T17 construct: Radio-iodinated in the RIA; also called rhCTGF; CTGF
T17 sequence: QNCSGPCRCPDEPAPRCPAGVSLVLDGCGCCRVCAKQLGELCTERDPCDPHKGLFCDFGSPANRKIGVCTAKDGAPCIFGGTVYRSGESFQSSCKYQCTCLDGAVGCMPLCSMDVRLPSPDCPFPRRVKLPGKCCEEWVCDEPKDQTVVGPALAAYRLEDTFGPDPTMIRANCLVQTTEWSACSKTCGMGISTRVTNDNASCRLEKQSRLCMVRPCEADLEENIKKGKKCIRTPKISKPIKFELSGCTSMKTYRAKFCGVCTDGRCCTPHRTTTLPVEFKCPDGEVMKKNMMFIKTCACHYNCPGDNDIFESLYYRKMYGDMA
Experimental: The affinity of each antibody population identified by epitope mapping was measured using RIA, wherein whole rhCTGF was radio-iodinated and added to wells containing immobilized monoclonal antibody, as follows. Recombinant human CTGF was radiolabeled with ¹²⁵I using the chloramine-T method. (See, Greenwood et al. (1963) Biochem J 89:114-123.) Typically, at least 60% of the ¹²⁵I was incorporated and the specific activity of the labeled CTGF was at least 1×10⁵ cpm/ng, although labeled CTGF of lower specific activity can be used in the radioimmunoassay. Goat anti-human IgG, γFc-specific capture antibody (Jackson ImmunoResearch) in Ca²⁺- and Mg²⁺-free DPBS (Mediatech, Herrndon Va.) was added to the wells of a MAXISORP BREAKAPART microtiter plate (Nalge Nunc International, Rochester N.Y.) and allowed to bind overnight at 4° C. The wells were then blocked with 1% BSA in Ca²⁺- and Mg²⁺-free DPBS for at least 4 hours at 4° C. […] Wells were then washed four times with 0.1% Tween 20 in Ca²⁺- and Mg²⁺-free PBS (Mediatech), and the wells of the microtiter plate were separated and counted in a gamma counter.
Affinity was estimated graphically by the method of Scatchard (1948, Ann NY Acad Sci 51:660-72). The total concentration of labeled CTGF applied to the plate was calculated as […]

[18] = molecular target: T18, recombinant human connective tissue growth factor (UniProt P29279 27-349); experiment: Scatchard competitive binding; mAb 5 ng/ml
T18 chain: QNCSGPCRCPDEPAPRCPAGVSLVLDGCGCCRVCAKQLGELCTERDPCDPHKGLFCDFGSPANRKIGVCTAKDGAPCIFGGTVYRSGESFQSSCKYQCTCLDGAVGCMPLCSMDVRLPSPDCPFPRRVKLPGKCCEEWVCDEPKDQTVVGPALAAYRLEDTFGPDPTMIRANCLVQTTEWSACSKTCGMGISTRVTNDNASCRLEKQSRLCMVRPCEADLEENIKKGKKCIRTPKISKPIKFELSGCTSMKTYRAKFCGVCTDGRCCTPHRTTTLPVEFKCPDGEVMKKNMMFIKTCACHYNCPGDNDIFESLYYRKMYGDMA

[19] = molecular target: T1, rat CTGF; experiment: Scatchard competitive binding; mAb 5 ng/ml; labeled human CTGF vs unlabeled rat CTGF
[20] = molecular target: T18, recombinant human connective tissue …; experiment: Scatchard competitive binding; mAb 2.5 ng/ml
[21] = molecular target: T18, recombinant human connective tissue …; experiment: Scatchard competitive binding; mAb 25 ng/ml
[22] = molecular target: T19, rat CTGF (rat, UniProt Q9R1E9 25-347); experiment: RIA, unlabeled rat CTGF competing with [125I]rhCTGF for immobilized antibody
T19 construct: also called unlabeled rat CTGF; recombinant rat CTGF
T19 sequence (looked up): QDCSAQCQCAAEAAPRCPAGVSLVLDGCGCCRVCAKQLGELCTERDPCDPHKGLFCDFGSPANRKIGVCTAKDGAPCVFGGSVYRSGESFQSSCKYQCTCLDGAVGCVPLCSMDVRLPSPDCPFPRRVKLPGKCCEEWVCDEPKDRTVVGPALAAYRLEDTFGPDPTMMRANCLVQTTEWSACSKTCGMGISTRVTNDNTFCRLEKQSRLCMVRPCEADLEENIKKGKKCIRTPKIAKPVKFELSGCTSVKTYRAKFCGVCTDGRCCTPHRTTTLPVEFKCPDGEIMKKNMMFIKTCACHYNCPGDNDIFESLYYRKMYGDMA
Experimental: (§1) The affinity of each antibody population identified by epitope mapping was measured using RIA, wherein whole rhCTGF was radio-iodinated and added to wells containing immobilized monoclonal antibody, as follows. Recombinant human CTGF was radiolabeled with ¹²⁵I using the chloramine-T method. (See, Greenwood et al. (1963) Biochem J 89:114-123.) Typically, at least 60% of the ¹²⁵I was incorporated and the specific activity of the labeled CTGF was at least 1×10⁵ cpm/ng, although labeled CTGF of lower specific activity can be used in the radioimmunoassay. Goat anti-human IgG, γFc-specific capture antibody (Jackson ImmunoResearch) in Ca²⁺- and Mg²⁺-free DPBS (Mediatech, Herrndon Va.) was added to the wells of a MAXISORP BREAKAPART microtiter plate (Nalge Nunc International, Rochester N.Y.) and allowed to bind overnight at 4° C. The wells were then blocked with 1% BSA in Ca²⁺- and Mg²⁺-free DPBS for at least 4 hours at 4° C. The blocking solution was removed and 100 μl of test antibody at 2-50 ng/ml in Ca²⁺- and Mg²⁺-free DPBS was added and allowed to bind overnight at 4° C. […] Wells were then washed four times with 0.1% Tween 20 in Ca²⁺- and Mg²⁺-free PBS (Mediatech), and the wells of the microtiter plate were separated and counted in a gamma counter. […]

[23] = molecular target: T18, recombinant human connective tissue …; experiment: Scatchard competitive binding; mAb 10 ng/ml
[24] = molecular target: T17, recombinant human connective tissue …; experiment: RIA as in Example 4.2
Experimental: as §1

[25] = molecular target: T17, recombinant human connective tissue …; experiment: not stated (assays as described in Example 4)

- Kd [1]: 0.339 nM
- binding result [2]: no binding
- binding result [3]: no binding
- binding result [4]: no binding
- binding result [5]: binds
- binding result [6]: no binding
- binding result [7]: no binding
- binding result [8]: no binding
- binding result [9]: no binding
- binding result [10]: no binding
- binding result [11]: no binding
- binding result [12]: binds
- binding result [13]: binds
- binding result [14]: no binding
- binding result [15]: binds
- binding result [16]: no binding
- Kd [17]: < 1 nM
- Kd [18]: 0.239 nM
- Kd [19]: 0.317 nM
- Kd [20]: 0.215 nM
- Kd [21]: 0.384 nM
- binding result [22]: binds
- Kd [23]: 0.271 nM
B1: mAb1 (antibody, V domains shown)
VH: EGQLVQSGGGLVHPGGSLRLSCAGSGFTFSSYGMHWVRQAPGKGLEWVSGIGTGGGTYSTDSVKGRFTISRDNAKNSLYLQMNSLRAEDMAVYYCARGDYYGSGSFFDCWGQGTLVTVSS
VL: DIQMTQSPSSLSASVGDRVTITCRASQGISSWLAWYQQKPEKAPKSLIYAASSLQSGVPSRFSGSGSGTDFTLTISSLQPEDFATYYCQQYNSYPPTFGQGTKLEIKR
notes: also called exemplary antibody of the invention; antibody of hybridoma cell line 8C12-F10

- binding result [24]: binds
B2: deglycosylated mAb1 (antibody, V domains shown)
VH: EGQLVQSGGGLVHPGGSLRLSCAGSGFTFSSYGMHWVRQAPGKGLEWVSGIGTGGGTYSTDSVKGRFTISRDNAKNSLYLQMNSLRAEDMAVYYCARGDYYGSGSFFDCWGQGTLVTVSS
VL: DIQMTQSPSSLSASVGDRVTITCRASQGISSWLAWYQQKPEKAPKSLIYAASSLQSGVPSRFSGSGSGTDFTLTISSLQPEDFATYYCQQYNSYPPTFGQGTKLEIKR
modifications: N-linked oligosaccharides removed with peptide N-glycosidase F (PNGase F)
notes: also called deglycosylated antibody; PNGase F treated mAb1

- Kd [25]: 0.8 nM
B3: CLN1 (antibody, V domains shown)
VH: EGQLVQSGGGLVHPGGSLRLSCAGSGFTFSSYGMHWVRQAPGKGLEWVSGIGTGGGTYSTDSVKGRFTISRDNAKNSLYLQMNSLRAEDMAVYYCARGDYYGSGSFFDCWGQGTLVTVSS
VL: DIQMTQSPSSLSASVGDRVTITCRASQGISSWLAWYQQKPEKAPKSLIYAASSLQSGVPSRFSGSGSGTDFTLTISSLQPEDFATYYCQQYNSYPPTFGQGTKLEIKR
notes: also called recombinant antibody from COS7 cells co-transfected with plasmids 44a1 and 42b2
